The supplement of paper PMC7125110
± gives the standard error. For some of these results: Variants at the floor of the assay were thinned out.

B1: glmS ribozyme (parent)
chain: AUAAAAGCGCCAGAACUACAGAAAUGUAGUUGACGAGGAGGAGGUUUAUCGAAUUUUCGGCGGAUGCCUCCAAA

Tests used:
Settings in all cases: with glucosamine-6-phosphate
glucosamine-6-phosphate [1] = variants of: B1; assay: kcat; higher = faster cleavage; RNA array
Method in brief: (§1)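 Ribozyme variants carrying barcodes were transcribed in situ on sequenced MiSeq chips by E. coli RNA polymerase and tracked at 37 °C with a hybridised Cy3 probe. They were exposed to 40 μM to 10 mM glucosamine-6-phosphate in HEPES/KCl/Mg(OAc)2 buffer. kobs came from exponential decay fits of normalised per-tile medians, and kcat and KM from weighted Michaelis–Menten fits.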

glucosamine-6-phosphate [2] = variants of: B1; assay: self-cleavage kobs at 160 uM GlcN6P; higher = faster cleavage; RNA array
Method in brief: as §1

glucosamine-6-phosphate [3] = variants of: B1; assay: self-cleavage kobs at 640 uM GlcN6P; higher = faster cleavage; RNA array
Method in brief: as §1

glucosamine-6-phosphate [4] = variants of: B1; assay: self-cleavage kobs at 2500 uM GlcN6P; higher = faster cleavage; RNA array
Method in brief: as §1

glucosamine-6-phosphate [5] = variants of: B1; assay: self-cleavage kobs at 10000 uM GlcN6P; higher = faster cleavage; RNA array
Method in brief: as §1

glucosamine-6-phosphate [6] = variants of: B1; assay: KM; higher = weaker cofactor use; RNA array
Method in brief: as §1

glucosamine-6-phosphate [7] = variants of: B1; assay: self-cleavage kobs at 40 uM GlcN6P; higher = faster cleavage; RNA array
Method in brief: as §1

Row | Variant | kcat (glucosamine-6-phosphate [1]) | self-cleavage kobs at 160 uM GlcN6P (glucosamine-6-phosphate [2]) | self-cleavage kobs at 640 uM GlcN6P (glucosamine-6-phosphate [3]) | self-cleavage kobs at 2500 uM GlcN6P (glucosamine-6-phosphate [4]) | self-cleavage kobs at 10000 uM GlcN6P (glucosamine-6-phosphate [5]) | KM (glucosamine-6-phosphate [6]) | self-cleavage kobs at 40 uM GlcN6P (glucosamine-6-phosphate [7])
1 | G41C A53G | 0.000359 ± 9.5e-05 s⁻¹ | 5.35e-05 ± 1.4e-05 s⁻¹ | 0.000157 ± 3.2e-05 s⁻¹ | 0.000193 ± 4.2e-05 s⁻¹ | 0.000438 ± 7.1e-05 s⁻¹ |  | 
2 | A42U A53G | 0.000266 ± 4.7e-05 s⁻¹ |  | 4.83e-05 ± 1.2e-05 s⁻¹ | 0.000175 ± 2.1e-05 s⁻¹ | 0.000206 ± 2.4e-05 s⁻¹ | 2160 ± 870 µM | 
3 | A42U A53U | 0.000105 ± 1.1e-05 s⁻¹ |  |  | 8.5e-05 ± 1.5e-05 s⁻¹ | 9.14e-05 ± 8.2e-06 s⁻¹ |  | 
4 | A42U A53C | 0.000148 ± 2.3e-05 s⁻¹ |  |  | 7.29e-05 ± 2e-05 s⁻¹ | 0.000113 ± 1.6e-05 s⁻¹ | 3050 ± 1500 µM | 
5 | G41U U55A | 0.000121 ± 2e-05 s⁻¹ | 5.55e-05 ± 1.3e-05 s⁻¹ | 0.000132 ± 2e-05 s⁻¹ | 0.000105 ± 3.7e-05 s⁻¹ | 0.000105 ± 1.7e-05 s⁻¹ |  | 
6 | A42G U54G | 0.0467 ± 0.012 s⁻¹ | 0.00287 ± 0.00056 s⁻¹ | 0.0108 ± 0.0031 s⁻¹ | 0.0229 ± 0.0093 s⁻¹ | 0.0409 ± 0.011 s⁻¹ | 2110 ± 650 µM | 0.00111 ± 0.00022 s⁻¹
7 | A42G U54A | 0.0214 ± 0.0099 s⁻¹ | 0.00396 ± 0.0011 s⁻¹ | 0.029 ± 0.0057 s⁻¹ |  | 0.0172 ± 0.004 s⁻¹ |  | 0.000967 ± 0.00013 s⁻¹
8 | G43U U54G | 8.63e-05 ± 2.8e-05 s⁻¹ |  |  | 6.89e-05 ± 1.8e-05 s⁻¹ | 6.53e-05 ± 2.3e-05 s⁻¹ |  | 
9 | U45G C71A | 0.000924 ± 0.00018 s⁻¹ | 8.6e-05 ± 1.7e-05 s⁻¹ | 0.000204 ± 3.8e-05 s⁻¹ | 0.000778 ± 0.00016 s⁻¹ | 0.000766 ± 0.0001 s⁻¹ | 1750 ± 590 µM | 3.27e-05 ± 1.3e-05 s⁻¹
10 | G41U G66U | 5.98e-05 ± 1.9e-06 s⁻¹ | < 1e-05 s⁻¹ | 3.02e-05 ± 1.5e-05 s⁻¹ | 5.12e-05 ± 1.5e-05 s⁻¹ | 5.53e-05 ± 1.3e-05 s⁻¹ | 582 ± 89 µM | 
11 | A42G U69C | 0.0183 ± 0.0052 s⁻¹ | 0.00336 ± 0.0014 s⁻¹ | 0.0132 ± 0.0044 s⁻¹ | 0.0132 ± 0.0041 s⁻¹ |  | 599 ± 250 µM | 0.00116 ± 0.00032 s⁻¹
12 | A42C U49G | 1.03e-05 ± 3.2e-07 s⁻¹ |  |  |  |  | 512 ± 51 µM | 
13 | G44U C67U | 0.00551 ± 0.0015 s⁻¹ | 0.000837 ± 0.00016 s⁻¹ | 0.00206 ± 0.00029 s⁻¹ | 0.00417 ± 0.00073 s⁻¹ | 0.00691 ± 0.001 s⁻¹ | 727 ± 310 µM | 0.000365 ± 4e-05 s⁻¹
14 | G44U C67A | 0.0253 ± 0.0035 s⁻¹ | 0.00267 ± 0.00064 s⁻¹ | 0.00977 ± 0.0013 s⁻¹ | 0.0244 ± 0.0065 s⁻¹ | 0.0209 ± 0.0036 s⁻¹ | 1130 ± 210 µM | 0.000868 ± 0.0001 s⁻¹
15 | G43U U65A | 4.13e-05 ± 2e-06 s⁻¹ | < 1e-05 s⁻¹ | < 1e-05 s⁻¹ |  | 2.64e-05 ± 1.1e-05 s⁻¹ | 5670 ± 730 µM | 
16 | U45C C67U | 0.00406 ± 0.00066 s⁻¹ | 0.000146 ± 5.8e-05 s⁻¹ | 0.000935 ± 0.00014 s⁻¹ | 0.00203 ± 0.00032 s⁻¹ | 0.00337 ± 0.00031 s⁻¹ | 2250 ± 580 µM | 8.28e-05 ± 9.7e-06 s⁻¹
17 | G43A U56G | 4.8e-05 ± 2.6e-07 s⁻¹ |  |  |  | 3.58e-05 ± 9e-06 s⁻¹ | 3400 ± 58 µM | 
18 | G41U A42G | 0.000998 ± 0.00021 s⁻¹ | 9.47e-05 ± 2e-05 s⁻¹ | 0.000285 ± 6.2e-05 s⁻¹ | 0.000816 ± 0.00012 s⁻¹ | 0.000843 ± 0.00012 s⁻¹ | 1240 ± 450 µM | 4.79e-05 ± 9.1e-06 s⁻¹
19 | G41U A64G | 0.000821 ± 6e-05 s⁻¹ | 3.5e-05 ± 9.6e-06 s⁻¹ | 0.00015 ± 2.3e-05 s⁻¹ | 0.000414 ± 5.2e-05 s⁻¹ | 0.000621 ± 4.9e-05 s⁻¹ | 2970 ± 430 µM | 
20 | G41U A52G | 0.000128 ± 2e-05 s⁻¹ |  | 3.83e-05 ± 8.7e-06 s⁻¹ | 0.000113 ± 1.3e-05 s⁻¹ | 0.000107 ± 1.1e-05 s⁻¹ | 1140 ± 560 µM | 
21 | G44U C70U | 3.72e-05 ± 5.6e-06 s⁻¹ | < 1e-05 s⁻¹ |  | 3.43e-05 ± 1.1e-05 s⁻¹ | 3.29e-05 ± 6.6e-06 s⁻¹ |  | < 1e-05 s⁻¹
22 | G41C U45A | 0.000121 ± 5.5e-06 s⁻¹ |  | 4.19e-05 ± 7.6e-06 s⁻¹ |  | 0.000108 ± 1.1e-05 s⁻¹ | 1240 ± 160 µM | 
23 | U45C A53U | 0.0028 ± 0.0008 s⁻¹ | 0.000117 ± 2.5e-05 s⁻¹ | 0.00031 ± 5e-05 s⁻¹ | 0.00109 ± 0.00022 s⁻¹ | 0.00199 ± 0.00035 s⁻¹ | 4320 ± 1700 µM | 4.26e-05 ± 1.2e-05 s⁻¹
24 | U45G C68G | 0.000114 ± 1.6e-05 s⁻¹ |  | 2.89e-05 ± 1.3e-05 s⁻¹ | 4.55e-05 ± 1.3e-05 s⁻¹ | 8.96e-05 ± 1.3e-05 s⁻¹ | 2980 ± 1100 µM | 
25 | U45G C68U | 0.00118 ± 0.00032 s⁻¹ | 5.23e-05 ± 1.3e-05 s⁻¹ | 0.000145 ± 2.5e-05 s⁻¹ | 0.000287 ± 5.6e-05 s⁻¹ | 0.000826 ± 8.4e-05 s⁻¹ | 5190 ± 2400 µM | 
26 | G41U U65A | 0.000223 ± 4.3e-05 s⁻¹ |  | 8.03e-05 ± 8.5e-06 s⁻¹ | 0.000238 ± 3.1e-05 s⁻¹ | 0.000183 ± 2e-05 s⁻¹ | 1090 ± 470 µM | 
27 | G41U A53G | 0.00129 ± 0.00028 s⁻¹ | 0.000362 ± 7.8e-05 s⁻¹ | 0.00133 ± 0.0002 s⁻¹ | 0.000959 ± 0.00015 s⁻¹ | 0.00153 ± 0.00029 s⁻¹ | 291 ± 120 µM | 0.000167 ± 2.7e-05 s⁻¹
28 | A42G U49G | 0.00144 ± 0.00033 s⁻¹ | 5.71e-05 ± 1.4e-05 s⁻¹ | 0.000275 ± 4.4e-05 s⁻¹ | 0.000609 ± 9.7e-05 s⁻¹ | 0.0011 ± 0.00017 s⁻¹ | 3190 ± 1100 µM | 5.36e-05 ± 2.3e-05 s⁻¹
